Assay results as given in US20200016266A1 (INIS BIOTECH, published 2020).
Read-outs that look alike come from different tables or passages of the source.

T1: VAPDAKS
T1 construct: 7-mer of the Gal1 peptide array, axis label
T1 peptide: VAPDAKS

T2: GLVASNL
T2 construct: 7-mer of the Gal1 peptide array, axis label
T2 peptide: GLVASNL

T3: TFDQANLTVKLPD
T3 construct: 13-mer of the Gal1 peptide array, axis label
T3 peptide: TFDQANLTVKLPD

T4: LPDGYEFKFPNRL
T4 construct: 13-mer of the Gal1 peptide array, axis label
T4 peptide: LPDGYEFKFPNRL

T5: PGECLRV
T5 construct: 7-mer of the Gal1 peptide array, axis label
T5 peptide: PGECLRV

T6: QPGSVAEVCITFD
T6 construct: 13-mer of the Gal1 peptide array, axis label
T6 peptide: QPGSVAEVCITFD

T7: NLGKDSN
T7 construct: 7-mer of the Gal1 peptide array, axis label
T7 peptide: NLGKDSN


What was measured:
VAPDAKS [1] = molecular target: T1, VAPDAKS; test: PEPperMAP conformational epitope mapping peptide array, fluorescence intensity [a.u.]
GLVASNL [2] = molecular target: T2, GLVASNL; test: as above
TFDQANLTVKLPD [3] = molecular target: T3, TFDQANLTVKLPD; test: as above
LPDGYEFKFPNRL [4] = molecular target: T4, LPDGYEFKFPNRL; test: as above
PGECLRV [5] = molecular target: T5, PGECLRV; test: as above
QPGSVAEVCITFD [6] = molecular target: T6, QPGSVAEVCITFD; test: as above
NLGKDSN [7] = molecular target: T7, NLGKDSN; test: as above
[8] = molecular target: T8, Galectin-1 (human recombinant Gal1) (human, UniProt P09382 2-135, DyLight 594 label in the FRET assay only); test: SPR, BIAEvaluation 3.0, 1:1 kinetic model
T8 construct: Recombinant Gal1 made in-house; also called rhGal1; 594-Gal1
Procedure: By using the BIAEvaluation 3.0 software in a kinetics model of interaction adjustment 1:1, kinetic parameters, constants of dissociation (Kd) and affinity (Ka) were calculated.

VAPDAKS [9] = molecular target: T1, VAPDAKS; test: PEPperMAP conformational epitope mapping peptide array, fluorescence intensity [a.u.]
GLVASNL [10] = molecular target: T2, GLVASNL; test: as above
TFDQANLTVKLPD [11] = molecular target: T3, TFDQANLTVKLPD; test: as above
LPDGYEFKFPNRL [12] = molecular target: T4, LPDGYEFKFPNRL; test: as above
PGECLRV [13] = molecular target: T5, PGECLRV; test: as above
QPGSVAEVCITFD [14] = molecular target: T6, QPGSVAEVCITFD; test: as above
NLGKDSN [15] = molecular target: T7, NLGKDSN; test: as above

T8 sequence (P09382 2-135 limits assumed): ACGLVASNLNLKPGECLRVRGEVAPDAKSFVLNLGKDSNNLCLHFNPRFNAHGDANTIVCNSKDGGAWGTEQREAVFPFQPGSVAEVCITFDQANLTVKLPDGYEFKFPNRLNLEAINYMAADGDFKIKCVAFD

binding result (VAPDAKS [1])	binding result (GLVASNL [2])	binding result (TFDQANLTVKLPD [3])	binding result (LPDGYEFKFPNRL [4])	binding result (PGECLRV [5])	binding result (QPGSVAEVCITFD [6])	binding result (NLGKDSN [7])	Ka [8] [M⁻¹]	Kd [8] [nM]	binding result (VAPDAKS [9])	binding result (GLVASNL [10])	binding result (TFDQANLTVKLPD [11])	binding result (LPDGYEFKFPNRL [12])	binding result (PGECLRV [13])	binding result (QPGSVAEVCITFD [14])	binding result (NLGKDSN [15])	Binder
no binding (tested: 10 µg/ml)	no binding (tested: 10 µg/ml)	no binding (tested: 10 µg/ml)	no binding (tested: 10 µg/ml)	no binding (tested: 10 µg/ml)	no binding (tested: 10 µg/ml)	no binding (tested: 10 µg/ml)	649000	1540								anti-Gal1 Clone 21, fully human monoclonal antibody (antibody, V domains shown, also called MAb21; Human Ab 21) VH: EVQLLESGGGLVQPGGSLRLSCAASGFTFSSYAMSWVRQAPGKGLEWVSEIGRVGVNTLYADSVKGRFTISRDNSKNTLYLQMNSLRAEDTAVYYCAKKATQFDYWGQGTLVTVSS VL: DIQMTQSPSSLSASVGDRVTITCRASQSISSYLNWYQQKPGKAPKLLIYRASRLQSGVPSRFSGSGSGTDFTLTISSLQPEDFATYYCQQTIGPPDTFGQGTKVEIKR
							7.63e+06	131	no binding (tested: 10 µg/ml)	no binding (tested: 10 µg/ml)	no binding (tested: 10 µg/ml)	no binding (tested: 10 µg/ml)	no binding (tested: 10 µg/ml)	no binding (tested: 10 µg/ml)	no binding (tested: 10 µg/ml)	anti-Gal1 Clone 42, fully human monoclonal antibody (antibody, V domains shown, also called MAb42; Human Ab 42) VH: EVQLLESGGGLVQPGGSLRLSCAASGFTFSSYAMSWVRQAPGKGLEWVSGISGSGDYTSYADSVKGRFTISRDNSKNTLYLQMNSLRAEDTAVYYCAKGYGAFDYWGQGTLVTVSS VL: DIQMTQSPSSLSASVGDRVTITCRASQSISSYLNWYQQKPGKAPKLLIYGASWLQSGVPSRFSGSGSGTDFTLTISSLQPEDFATYYCQQSANYPSTFGQGTKVEIKR
